Legend:
[1] = test system: Control (peptide of Table 12)

rhMMP3, sequence (chain, as listed by the source): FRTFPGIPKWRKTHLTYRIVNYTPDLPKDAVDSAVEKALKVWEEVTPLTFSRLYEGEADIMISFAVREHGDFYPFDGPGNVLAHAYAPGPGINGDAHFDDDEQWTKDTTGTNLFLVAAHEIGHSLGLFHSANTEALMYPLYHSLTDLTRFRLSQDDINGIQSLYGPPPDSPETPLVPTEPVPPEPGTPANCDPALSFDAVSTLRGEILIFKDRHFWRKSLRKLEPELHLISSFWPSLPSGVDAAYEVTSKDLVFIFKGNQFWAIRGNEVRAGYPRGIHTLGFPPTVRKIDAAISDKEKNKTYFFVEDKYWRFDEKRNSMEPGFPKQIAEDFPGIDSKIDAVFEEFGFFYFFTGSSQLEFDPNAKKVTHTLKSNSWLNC
rhMMP9, sequence (chain, as listed by the source): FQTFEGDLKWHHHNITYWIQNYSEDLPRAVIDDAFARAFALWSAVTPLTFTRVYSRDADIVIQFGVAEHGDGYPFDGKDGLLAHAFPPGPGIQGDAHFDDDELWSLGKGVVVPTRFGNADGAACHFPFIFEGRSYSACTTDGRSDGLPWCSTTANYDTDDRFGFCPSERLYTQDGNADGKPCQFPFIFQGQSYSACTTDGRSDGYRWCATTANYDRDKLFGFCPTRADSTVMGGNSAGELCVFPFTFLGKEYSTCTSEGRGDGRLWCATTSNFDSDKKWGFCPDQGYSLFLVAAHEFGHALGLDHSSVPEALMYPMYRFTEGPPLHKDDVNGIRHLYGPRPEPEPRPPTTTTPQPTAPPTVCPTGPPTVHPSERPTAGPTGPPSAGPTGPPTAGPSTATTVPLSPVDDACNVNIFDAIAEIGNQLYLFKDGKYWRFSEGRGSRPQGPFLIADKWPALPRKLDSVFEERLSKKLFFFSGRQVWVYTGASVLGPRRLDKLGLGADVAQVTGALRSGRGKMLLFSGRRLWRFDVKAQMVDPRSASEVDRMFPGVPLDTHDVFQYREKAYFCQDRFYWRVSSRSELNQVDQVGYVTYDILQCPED
rmMMP2, sequence (chain, as listed by the source): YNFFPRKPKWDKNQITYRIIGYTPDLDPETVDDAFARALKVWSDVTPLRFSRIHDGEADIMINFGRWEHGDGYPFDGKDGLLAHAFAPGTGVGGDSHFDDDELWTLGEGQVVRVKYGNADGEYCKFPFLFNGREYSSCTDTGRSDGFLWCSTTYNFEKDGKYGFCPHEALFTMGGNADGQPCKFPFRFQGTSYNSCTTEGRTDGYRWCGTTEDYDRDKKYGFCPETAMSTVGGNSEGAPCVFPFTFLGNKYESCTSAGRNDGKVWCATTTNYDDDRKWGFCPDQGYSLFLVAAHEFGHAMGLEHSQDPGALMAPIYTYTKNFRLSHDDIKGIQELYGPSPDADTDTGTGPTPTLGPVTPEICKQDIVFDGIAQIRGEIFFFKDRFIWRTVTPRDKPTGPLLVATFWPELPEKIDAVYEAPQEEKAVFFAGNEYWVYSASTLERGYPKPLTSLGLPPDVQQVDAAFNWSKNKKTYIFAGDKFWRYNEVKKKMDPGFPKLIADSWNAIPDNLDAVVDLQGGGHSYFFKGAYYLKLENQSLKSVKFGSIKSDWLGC
BI-050, sequence (chain, as listed by the source, chain 1 of 2): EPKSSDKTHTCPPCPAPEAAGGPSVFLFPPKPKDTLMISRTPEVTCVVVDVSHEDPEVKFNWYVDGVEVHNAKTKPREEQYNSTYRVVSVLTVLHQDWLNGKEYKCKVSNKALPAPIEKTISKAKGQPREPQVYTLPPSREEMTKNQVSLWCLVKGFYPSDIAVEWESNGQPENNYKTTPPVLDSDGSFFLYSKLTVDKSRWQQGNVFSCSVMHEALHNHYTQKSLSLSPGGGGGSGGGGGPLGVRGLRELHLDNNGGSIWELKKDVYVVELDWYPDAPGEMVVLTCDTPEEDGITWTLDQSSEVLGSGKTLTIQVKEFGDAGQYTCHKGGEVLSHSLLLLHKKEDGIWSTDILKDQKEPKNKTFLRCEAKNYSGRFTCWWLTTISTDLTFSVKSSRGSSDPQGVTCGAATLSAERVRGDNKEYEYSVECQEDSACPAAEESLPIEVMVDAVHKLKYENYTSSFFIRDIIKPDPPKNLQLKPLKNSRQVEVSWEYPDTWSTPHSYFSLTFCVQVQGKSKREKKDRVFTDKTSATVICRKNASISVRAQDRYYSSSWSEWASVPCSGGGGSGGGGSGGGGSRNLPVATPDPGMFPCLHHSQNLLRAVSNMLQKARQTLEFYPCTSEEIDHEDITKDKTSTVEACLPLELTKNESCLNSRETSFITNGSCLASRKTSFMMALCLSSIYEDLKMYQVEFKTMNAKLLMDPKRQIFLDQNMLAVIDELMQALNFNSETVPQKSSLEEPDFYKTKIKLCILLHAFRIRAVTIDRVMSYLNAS
BI-050, sequence (chain, as listed by the source, chain 2 of 2): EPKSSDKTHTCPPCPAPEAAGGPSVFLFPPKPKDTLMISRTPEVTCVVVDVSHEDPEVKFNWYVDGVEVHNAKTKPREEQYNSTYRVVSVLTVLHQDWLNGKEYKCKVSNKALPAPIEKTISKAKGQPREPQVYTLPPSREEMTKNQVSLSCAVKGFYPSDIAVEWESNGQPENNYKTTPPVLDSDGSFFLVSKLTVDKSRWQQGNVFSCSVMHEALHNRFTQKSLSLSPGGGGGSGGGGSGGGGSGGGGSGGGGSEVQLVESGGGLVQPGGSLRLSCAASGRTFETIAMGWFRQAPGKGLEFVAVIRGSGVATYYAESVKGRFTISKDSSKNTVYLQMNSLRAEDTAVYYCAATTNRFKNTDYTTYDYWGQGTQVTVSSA
BI-059, sequence (chain, as listed by the source, chain 1 of 2): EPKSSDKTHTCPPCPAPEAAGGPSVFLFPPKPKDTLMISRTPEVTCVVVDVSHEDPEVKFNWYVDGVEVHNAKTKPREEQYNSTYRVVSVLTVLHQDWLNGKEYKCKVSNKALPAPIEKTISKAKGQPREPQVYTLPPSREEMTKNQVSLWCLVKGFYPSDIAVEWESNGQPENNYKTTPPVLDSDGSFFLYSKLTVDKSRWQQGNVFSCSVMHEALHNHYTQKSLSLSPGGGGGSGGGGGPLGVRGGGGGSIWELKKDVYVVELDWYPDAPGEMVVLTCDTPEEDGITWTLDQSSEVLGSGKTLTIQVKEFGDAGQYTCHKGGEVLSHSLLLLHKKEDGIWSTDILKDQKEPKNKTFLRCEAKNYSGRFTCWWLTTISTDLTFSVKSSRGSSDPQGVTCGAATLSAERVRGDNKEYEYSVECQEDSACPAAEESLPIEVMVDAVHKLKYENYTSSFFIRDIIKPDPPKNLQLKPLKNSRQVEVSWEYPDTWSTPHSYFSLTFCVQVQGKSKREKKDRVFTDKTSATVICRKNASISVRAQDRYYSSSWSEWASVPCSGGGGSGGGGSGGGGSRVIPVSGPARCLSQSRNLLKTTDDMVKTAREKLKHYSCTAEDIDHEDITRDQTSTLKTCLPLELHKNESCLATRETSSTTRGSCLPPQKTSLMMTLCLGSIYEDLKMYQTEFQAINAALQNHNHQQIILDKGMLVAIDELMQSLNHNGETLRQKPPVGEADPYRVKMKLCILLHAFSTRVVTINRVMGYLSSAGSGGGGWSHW
BI-055, sequence (chain, as listed by the source, chain 1 of 2): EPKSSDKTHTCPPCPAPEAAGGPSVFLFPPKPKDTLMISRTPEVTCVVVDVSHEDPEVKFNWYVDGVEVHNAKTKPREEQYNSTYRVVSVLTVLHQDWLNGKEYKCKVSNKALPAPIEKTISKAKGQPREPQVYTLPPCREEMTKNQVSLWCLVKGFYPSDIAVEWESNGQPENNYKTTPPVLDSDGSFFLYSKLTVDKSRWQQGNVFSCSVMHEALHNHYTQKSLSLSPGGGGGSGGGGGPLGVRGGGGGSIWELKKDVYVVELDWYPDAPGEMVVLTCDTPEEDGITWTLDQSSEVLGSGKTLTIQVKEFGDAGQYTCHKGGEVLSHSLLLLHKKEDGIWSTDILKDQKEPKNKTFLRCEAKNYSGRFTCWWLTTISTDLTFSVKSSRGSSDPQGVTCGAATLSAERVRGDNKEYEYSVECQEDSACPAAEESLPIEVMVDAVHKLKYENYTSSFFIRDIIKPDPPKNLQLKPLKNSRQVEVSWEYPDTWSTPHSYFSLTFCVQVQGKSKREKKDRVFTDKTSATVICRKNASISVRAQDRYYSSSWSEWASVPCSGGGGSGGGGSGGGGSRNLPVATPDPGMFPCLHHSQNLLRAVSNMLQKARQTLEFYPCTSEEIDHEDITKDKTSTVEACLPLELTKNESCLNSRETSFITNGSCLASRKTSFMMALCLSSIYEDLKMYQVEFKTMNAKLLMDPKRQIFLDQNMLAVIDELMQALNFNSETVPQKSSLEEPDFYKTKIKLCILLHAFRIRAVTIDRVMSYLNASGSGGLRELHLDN
BI-055, sequence (chain, as listed by the source, chain 2 of 2): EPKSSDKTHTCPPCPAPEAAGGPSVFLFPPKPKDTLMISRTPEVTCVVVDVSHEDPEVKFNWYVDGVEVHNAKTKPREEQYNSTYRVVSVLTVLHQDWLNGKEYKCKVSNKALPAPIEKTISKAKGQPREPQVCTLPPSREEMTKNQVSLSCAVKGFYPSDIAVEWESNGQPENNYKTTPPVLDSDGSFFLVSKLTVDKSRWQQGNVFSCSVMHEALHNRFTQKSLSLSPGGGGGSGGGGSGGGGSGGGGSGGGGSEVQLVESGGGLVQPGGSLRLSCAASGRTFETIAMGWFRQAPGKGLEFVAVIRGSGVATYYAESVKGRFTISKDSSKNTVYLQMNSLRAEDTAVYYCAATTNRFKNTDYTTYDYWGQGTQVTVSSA

Substance	Specific Activity [1] [pmol/min/µg]	Specific Activity (Peptide 10) [pmol/min/µg]	Specific Activity (Peptide 5 (GPLGVRG)) [pmol/min/µg]	Specific Activity (Peptide 8) [pmol/min/µg]	cleavage shown by SDS-PAGE (BI-050)	cleavage shown by SDS-PAGE (BI-051)	cleavage shown by SDS-PAGE (BI-052)	cleavage shown by SDS-PAGE (BI-054)	cleavage shown by SDS-PAGE (BI-055)	cleavage by Western blot (BI-059)
rhMMP3	10	18.3	14.2	51.2						
rhMMP9	10	63.6	200	123	efficiently cleaved	efficiently cleaved	efficiently cleaved	efficiently cleaved	efficiently cleaved	efficiently cleaved with the human tumor lysates to the level comparable to activated MMP9
rmMMP2	10	98.9	165	233						
